Laboratory results from patent US20170334947A1.

Key:
[1] = molecular target: Fab fragment of anti-TNFα monoclonal antibody (generic name: Adalimumab) (humanized monoclonal IgG product (filing's words)); experiment: affinity chromatography, Protein-G Sepharose FF
[2] = molecular target: Fab fragment of anti-TNFα monoclonal antibody (generic name: Adalimumab) (humanized monoclonal IgG product (filing's words)); experiment: affinity chromatography, ligand 2.0 mg/mL-gel
[3] = molecular target: Fab fragment of anti-TNFα monoclonal antibody (generic name: Adalimumab) (humanized monoclonal IgG product (filing's words)); experiment: affinity chromatography, Fab kept after 40 CV wash, ligand 2.0 mg/mL-gel, 5.2 mg Fab loaded
[4] = molecular target: Fab fragment of anti-TNFα monoclonal antibody (generic name: Adalimumab) (humanized monoclonal IgG product (filing's words)); experiment: affinity chromatography, ligand […]-gel
[5] = molecular target: Fab fragment of anti-TNFα monoclonal antibody (generic name: Adalimumab) (humanized monoclonal IgG product (filing's words)); experiment: affinity chromatography, Fab kept after 40 CV wash, ligand […]-gel, 10.5 mg Fab loaded
[6] = molecular target: Fab fragment of anti-TNFα monoclonal antibody (generic name: Adalimumab) (humanized monoclonal IgG product (filing's words)); experiment: affinity chromatography, 55% DBC divided by immobilised ligand, 2.0 mg/mL-gel
[7] = molecular target: Fab fragment of anti-TNFα monoclonal antibody (generic name: Adalimumab) (humanized monoclonal IgG product (filing's words)); experiment: affinity chromatography, Fab kept after 40 CV wash, ligand 2.0 mg/mL-gel, 4.8 mg Fab loaded

55% DBC [1] [mg/mL-gel] | 55% DBC [2] [mg/mL-gel] | Recovery rate [3] [%] | 55% DBC [4] [mg/mL-gel] | Recovery rate [5] [%] | Binding capacity per ligand density [6] | Recovery rate [7] [%] | Substance
6.2 |  |  |  |  |  |  | Protein G ligand of the commercial carrier Protein-G Sepharose FF (GE Healthcare)
 | 10.4 | 28 | 21 | 43 | 5.2 |  | Pep-SpGβ1-Wild.2dC
 | 9.7 |  |  |  |  | 6 | Protein G ligand of the commercial carrier HiTrap Protein-G HP (GE Healthcare)
